Source: US20240116985A1, “STAPLED PEPTIDES AND METHODS THEREOF” (priority 2020, published 2024)
Starred links: 1 amine or outer side, 2 acyl side, 3 side chain; linkers in the order of their positions; H or OH if unused. Positions of bridges follow the written chain, without caps; N, C: chain ends. Non-standard residues stand in square brackets, D forms with d. Primed or numbered codes have the meaning given here. *: point of attachment. PyrS2″ = (S)-3-amino-1-((pent-4-en-1-yloxy)carbonyl)pyrrolidine-3-carboxylic acid (stapling residue), C=CCCCOC(=O)N1CC[C@@](N[*:1])(C(=O)[*:2])C1; B5(4) = 2,2-bis(4-pentenyl)glycine = 2-amino-2-(pent-4-en-1-yl)hept-6-enoic acid (stitching residue), C=CCCCC(CCCC=C)(N[*:1])C(=O)[*:2]; B5(5) = 2,2-bis(4-pentenyl)glycine, 2-amino-2-(pent-4-en-1-yl)hept-6-enoic acid (stitching residue), C=CCCCC(CCCC=C)(N[*:1])C(=O)[*:2]; PyrS2 = (S)-3-amino-1-((pent-4-en-1-yloxy)carbonyl)pyrrolidine-3-carboxylic acid, C=CCCCOC(=O)N1CC[C@@](N[*:1])(C(=O)[*:2])C1; PyrS1 = (S)-3-amino-1-((but-3-en-1-yloxy)carbonyl)pyrrolidine-3-carboxylic acid, C=CCCOC(=O)N1CC[C@@](N[*:1])(C(=O)[*:2])C1; B5(25) = 2-amino-2-(pent-4-en-1-yl)hept-6-enoic acid (stitching residue), C=CCCCC(CCCC=C)(N[*:1])C(=O)[*:2]; MorphAsn = (S)-2-amino-4-morpholino-4-oxobutanoic acid, O=C(C[C@H](N[*:1])C(=O)[*:2])N1CCOCC1; B5(3) = 2,2-bis(4-pentenyl)glycine (stitching residue), C=CCCCC(CCCC=C)(N[*:1])C(=O)[*:2]; B6 = 2-amino-2-(hex-5-en-1-yl)oct-7-enoic acid, C=CCCCCC(CCCCC=C)(N[*:1])C(=O)[*:2]; R6 = (R)-2-amino-2-methyloct-7-enoic acid, C=CCCCC[C@@](C)(N[*:1])C(=O)[*:2]; R4 = (R)-2-amino-2-methylhex-5-enoic acid, C=CCC[C@@](C)(N[*:1])C(=O)[*:2]; Phe(3-CF3) = N[C@@H](Cc1cccc(C(F)(F)F)c1)C(=O)O; Phe(3-COOH) = N[C@@H](Cc1cccc(C(=O)O)c1)C(=O)O; 2F3MeF = Cc1cccc(C[C@H](N[*:1])C(=O)[*:2])c1F; Phe(2-CF3) = N[C@@H](Cc1ccccc1C(F)(F)F)C(=O)O; Phe(3-Cl) = N[C@@H](Cc1cccc(Cl)c1)C(=O)O; Phe(2-Cl) = N[C@@H](Cc1ccccc1Cl)C(=O)O; dαMeGly(allyl) = C=CC[C@@](C)(N)C(=O)O; Bta = N[C@@H](Cc1csc2ccccc12)C(=O)O; αAllylPro = C=CC[C@@]1(C(=O)O)CCCN1; Morpholinoacetyl = O=C(CN1CCOCC1)*; tBuAla = CC(C)(C)C[C@H](N)C(=O)O; 3Thi = N[C@@H](Cc1ccsc1)C(=O)O; Cha = N[C@@H](CC1CCCCC1)C(=O)O; αMeP = C[C@@]1(C(=O)O)CCCN1; Leu(ol) = CC(C)C[C@H](N)CO; Me2Npr = not defined here; Alaol = C[C@@H](CO)N*; Aib = CC(C)(N)C(=O)O; Ms = CS(=O)(=O)*

B1: I-1991 (peptide)
peptide: Ac-PD[tBuAla][R6]DDAAFL[PyrS2][3Thi][Bta]Q-NH2
modifications: staple 4-11; not fully specified; printed as Ac-Pro-Asp-Npg-R6-Asp-Asp-Ala-Ala-Phe-Leu-PyrS2-3Thi-BztA-Gln-NH2; also: staple -CH=CH- reduced to -CH2-CH2-
B2: I-2231 (peptide)
peptide: Ac-[αMeP]D[tBuAla][Aib]DDAAFQ[Aib][3Thi][Bta]HK-NH2
SMILES: CC(=O)N1CCC[C@@]1(C)C(=O)N[C@@H](CC(=O)O)C(=O)N[C@@H](CC(C)(C)C)C(=O)NC(C)(C)C(=O)N[C@@H](CC(=O)O)C(=O)N[C@@H](CC(=O)O)C(=O)N[C@@H](C)C(=O)N[C@@H](C)C(=O)N[C@@H](Cc1ccccc1)C(=O)N[C@@H](CCC(N)=O)C(=O)NC(C)(C)C(=O)N[C@@H](Cc1ccsc1)C(=O)N[C@@H](Cc1csc2ccccc12)C(=O)N[C@@H](Cc1c[nH]cn1)C(=O)N[C@@H](CCCCN)C(N)=O
B3: I-1073 (peptide)
peptide: Ac-[αAllylPro]D[tBuAla][B5(3)]DEAAFL[PyrS2″]F[Bta]Q-NH2
modifications: staple 1-4, 4-11; not fully specified; printed as Ac-PL3-Asp-Npg-B5-Asp-Glu-Ala-Ala-Phe-Leu-PyrS2-Phe-BztA-Gln-NH2
B4: I-2523 (peptide)
peptide: Ac-[αAllylPro]N[Cha][B5(4)]DQKAFL[PyrS2]F[Bta][MorphAsn]-NH2
modifications: staple 1-4, 4-11; not fully specified (residue 7); printed as Ac-PL3-Asn-Cha-B5-Asp-Gln-[Phc]Lys-Ala-Phe-Leu-PyrS2-Phe-BztA-MorphAsn-NH2
B5: I-2520 (peptide)
peptide: Ac-[αAllylPro]D[tBuAla][B5(4)]DXQAFL[PyrS2][Phe(2-CF3)][Bta]A-NH2
modifications: staple 1-4, 4-11; not fully specified (residue 6); printed as Ac-PL3-Asp-Npg-B5-Asp-[CH2CChCO2H]TriAzDap-Gln-Ala-Phe-Leu-PyrS2-2F3MeF-BztA-Ala-NH2
B6: I-2519 (peptide)
peptide: Ac-[αAllylPro]D[tBuAla][B6]D[Phe(3-COOH)]QAFL[PyrS1][Phe(2-CF3)][Bta]A-NH2
modifications: staple 1-4, 4-11; not fully specified; printed as Ac-PL3-Asp-Npg-B6-Asp-3COOHF-Gln-Ala-Phe-Leu-PyrS1-2F3MeF-BztA-Ala-NH2
B7: I-2528 (peptide)
peptide: Ac-[αAllylPro]N[Cha][B5(25)]DQK(Me2Npr)AFL[PyrS2]F[Bta][MorphAsn]-NH2
modifications: staple 1-4, 4-11; reading uncertain; also: printed as Ac-PL3-Asn-Cha-B5-Asp-Gln-[Me2Npr]Lys-Ala-Phe-Leu-PyrS2-Phe-BztA-MorphAsn-NH2
B8: I-2228 (peptide)
peptide: Ac-[αMeP]D[tBuAla][Aib]DDAAFQ[Aib][3Thi][Bta]H-NH2
SMILES: CC(=O)N1CCC[C@@]1(C)C(=O)N[C@@H](CC(=O)O)C(=O)N[C@@H](CC(C)(C)C)C(=O)NC(C)(C)C(=O)N[C@@H](CC(=O)O)C(=O)N[C@@H](CC(=O)O)C(=O)N[C@@H](C)C(=O)N[C@@H](C)C(=O)N[C@@H](Cc1ccccc1)C(=O)N[C@@H](CCC(N)=O)C(=O)NC(C)(C)C(=O)N[C@@H](Cc1ccsc1)C(=O)N[C@@H](Cc1csc2ccccc12)C(=O)N[C@@H](Cc1c[nH]cn1)C(N)=O

Each binder was assayed against full-length beta-Catenin (Uniprot ID P35222) (Homo sapiens (Human)) (UniProt P35222) (assay: fluorescence polarization competition; 10 nM full-length beta-catenin + 10 nM 5FAM-TCF4(10-53) probe).
Target sequence in this assay (P35222 whole entry): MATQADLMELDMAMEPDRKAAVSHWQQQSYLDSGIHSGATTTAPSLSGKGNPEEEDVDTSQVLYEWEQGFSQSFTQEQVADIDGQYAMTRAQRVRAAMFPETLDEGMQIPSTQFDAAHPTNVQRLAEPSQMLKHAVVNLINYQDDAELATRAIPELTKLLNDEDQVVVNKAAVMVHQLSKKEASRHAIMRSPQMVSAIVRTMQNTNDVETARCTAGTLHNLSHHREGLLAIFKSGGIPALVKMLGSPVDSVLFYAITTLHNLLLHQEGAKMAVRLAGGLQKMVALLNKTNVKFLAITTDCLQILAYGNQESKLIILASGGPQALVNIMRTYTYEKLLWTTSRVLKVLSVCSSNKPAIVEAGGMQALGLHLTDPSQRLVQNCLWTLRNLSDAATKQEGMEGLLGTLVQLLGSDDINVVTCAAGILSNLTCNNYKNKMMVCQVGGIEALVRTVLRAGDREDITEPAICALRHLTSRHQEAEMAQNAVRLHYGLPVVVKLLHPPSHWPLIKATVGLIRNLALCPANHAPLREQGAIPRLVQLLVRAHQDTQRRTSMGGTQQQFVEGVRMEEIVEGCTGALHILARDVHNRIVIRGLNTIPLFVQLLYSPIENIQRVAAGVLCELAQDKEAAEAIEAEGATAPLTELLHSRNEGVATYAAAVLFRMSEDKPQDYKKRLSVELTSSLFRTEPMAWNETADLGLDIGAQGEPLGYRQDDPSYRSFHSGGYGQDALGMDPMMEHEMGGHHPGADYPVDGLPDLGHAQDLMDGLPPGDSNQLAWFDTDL
With B1 the IC50 was 397 nM.
For Ac-PD[tBuAla][R6]DDAAFL[PyrS2][3Thi][Bta]Q-NH2 (staple 4-11) [I-1988], the IC50 was 312 nM.
With Ac-PD[tBuAla][R4]DDAAFL[PyrS2][3Thi][Bta]Q-NH2 (staple 4-11) [I-1989] the IC50 was 186 nM.
Ac-PD[tBuAla][dαMeGly(allyl)]DDAAFL[PyrS2][3Thi][Bta]Q-NH2 (staple 4-11) [I-1990] gave an IC50 of 585 nM.

The binders below were run against full-length beta-Catenin (Uniprot ID P35222) (Homo sapiens (Human)) (UniProt P35222) (assay: fluorescence polarization competition; peptide titrated against 10 nM full-length beta-catenin + 10 nM 5FAM-TCF4(10-53)).
B2 gave an IC50 of 5190 nM.
Binder B3 has an IC50 of 409 nM.
Work on Ac-[αAllylPro]D[Cha][B5(4)]DEAAFL[PyrS2″][Phe(2-Cl)][Bta]Q-NH2 (staple 1-4, 4-11; also: later-eluting HPLC peak staple isomer composition) [I-1078] yielded an IC50 of 352 nM.
Binder B4 has an IC50 of 1730 nM.
Binder Ac-[αAllylPro]D[tBuAla][B6]D[Phe(3-COOH)]QAFL[PyrS2][Phe(2-CF3)][Bta]A-NH2 (staple 1-4, 4-11) [I-2515] has an IC50 of 1610 nM.
With Ac-[αAllylPro]D[tBuAla][B5(4)]DDAAFN[PyrS2″][Phe(2-Cl)][Bta][Leu(ol)] (staple 1-4, 4-11) [I-1080] the IC50 was 6 nM.
Ac-[αAllylPro]D[tBuAla][B5(3)]DDAAFN[PyrS2″][Phe(2-Cl)][Bta]-Alaol (staple 1-4, 4-11) [I-1081] was tested, and the IC50 was 5 nM.
Ac-[αAllylPro]D[tBuAla][B5(3)]D[Phe(3-COOH)]AAFL[PyrS2″][3Thi][Phe(3-Cl)]Q-NH2 (staple 1-4, 4-11) [I-2224] was tested, and the IC50 was 14 nM.
Ac-[αAllylPro]D[Cha][B5(4)]DEAAFL[PyrS2″][Phe(2-Cl)][Bta]Q-NH2 (staple 1-4, 4-11; also: earlier-eluting HPLC peak staple isomer composition) [I-1077] was tested, and the IC50 was 324 nM.
With B5 the IC50 was 27 nM.
Ac-[αAllylPro]D[tBuAla][B5(3)]DDAAFQ[PyrS2″][3Thi][Bta]HK-NH2 (staple 1-4, 4-11; also: earlier eluting staple isomer) [I-2229] was tested, and the IC50 was 6 nM.
Binder Ac-[αAllylPro]D[tBuAla][B6]D[Phe(3-COOH)]QAFL[PyrS1][Phe(2-CF3)][Bta]A-NH2 (staple 1-4, 4-11) [I-2510] has an IC50 of 24 nM.
For Ac-[αAllylPro]D[tBuAla][B6]D[Phe(3-COOH)]QAFL[PyrS2][Phe(2-CF3)][Bta]A-NH2 (staple 1-4, 4-11; also: one of three HPLC isomer compositions) [I-2516], the IC50 was 209 nM.
For Ac-[αAllylPro]D[tBuAla][B5(3)]D[Phe(3-COOH)]AAFL[PyrS2″][2F3MeF][Phe(3-Cl)]S-NH2 (staple 1-4, 4-11) [I-2226], the IC50 was 97 nM.
In the case of Ac-[αAllylPro]N[Cha][B5(4)]DQK(Morpholinoacetyl)AFL[PyrS2]F[Bta][MorphAsn]-NH2 (staple 1-4, 4-11) [I-2527], the IC50 is reported as 263 nM.
For Ac-[αAllylPro]N[Cha][B5(4)]DQK(Ac)AFL[PyrS2]F[Bta][MorphAsn]-NH2 (staple 1-4, 4-11) [I-2522], the IC50 was 219 nM.
With Ac-[αAllylPro]D[tBuAla][B5(5)]DTAA[Phe(3-CF3)]T[PyrS2″]F[Bta]S-NH2 (staple 1-4, 4-11) [I-1268: Ac-PL3-Asp-Npg-B5-Asp-Thr-Ala-Ala-3F3MeF-Thr-PyrS2-Phe-BztA-Ser-NH2] the IC50 was 198 nM.
With Ac-[αAllylPro]N[Cha][B5(25)]DQK(Ms)AFL[PyrS2]F[Bta][MorphAsn]-NH2 (staple 1-4, 4-11) [I-2524] the IC50 was 609 nM.
For B6, the IC50 was 94 nM.
For Ac-[αAllylPro]D[tBuAla][B5(3)]DEAAFL[PyrS2″][Phe(2-Cl)][Bta]T-NH2 (staple 1-4, 4-11; also: staple stereoisomer: later eluting HPLC peak) [I-1071], the IC50 was 1260 nM.
Ac-[αAllylPro]D[tBuAla][B5(3)]DEAAFL[PyrS2″]F[Bta]Q-NH2 (staple 1-4, 4-11; also: staple stereoisomer: later eluting HPLC peak) [I-1074] showed an IC50 of 498 nM.
Binder Ac-[αAllylPro]D[tBuAla][B6]D[Phe(3-COOH)]QAFL[PyrS2][Phe(2-CF3)][Bta]A-NH2 (staple 1-4, 4-11) [I-2517] has an IC50 of 61 nM.
With Ac-[αAllylPro]N[Cha][B5(25)]DQK(CF3CO)AFL[PyrS2]F[Bta][MorphAsn]-NH2 (staple 1-4, 4-11) [I-2525] the IC50 was 4290 nM.
Ac-[αAllylPro]D[tBuAla][B5(3)]D[Phe(3-COOH)]QAFL[PyrS2″][2F3MeF][Phe(3-Cl)]A-NH2 (staple 1-4, 4-11) [I-2227] showed an IC50 of 47 nM.
In the case of B7, the IC50 is reported as 610 nM.
For B8, the IC50 was 2140 nM.
Work on Ac-[αAllylPro]D[tBuAla][B5(3)]DDAAFQ[PyrS2″][3Thi][Bta]HK-NH2 (staple 1-4, 4-11; also: later eluting staple isomer) [I-2230] yielded an IC50 of 8 nM.

The binders below were run against full-length beta-Catenin (Uniprot ID P35222) (Homo sapiens (Human)) (UniProt P35222) (assay: fluorescence polarization competition; full-length beta-catenin, competitor 5FAM-TCF4(10-53) probe).
Target sequence in this assay (P35222 whole entry): as above
Binder B3 has an EC50 of 409 nM.
For Ac-[αAllylPro]D[Cha][B5(4)]DEAAFL[PyrS2″][Phe(2-Cl)][Bta]Q-NH2 (staple 1-4, 4-11; also: later-eluting HPLC peak staple isomer composition) [I-1078], the EC50 was 352 nM.
In the case of Ac-[αAllylPro]D[tBuAla][B5(4)]DDAAFN[PyrS2″][Phe(2-Cl)][Bta][Leu(ol)] (staple 1-4, 4-11) [I-1080], the EC50 is reported as 6 nM.
Ac-[αAllylPro]D[tBuAla][B5(3)]DDAAFN[PyrS2″][Phe(2-Cl)][Bta]-Alaol (staple 1-4, 4-11) [I-1081] gave an EC50 of 5 nM.
In the case of Ac-[αAllylPro]D[Cha][B5(4)]DEAAFL[PyrS2″][Phe(2-Cl)][Bta]Q-NH2 (staple 1-4, 4-11; also: earlier-eluting HPLC peak staple isomer composition) [I-1077], the EC50 is reported as 324 nM.
Binder Ac-[αAllylPro]D[tBuAla][B5(3)]DEAAFL[PyrS2″][Phe(2-Cl)][Bta]T-NH2 (staple 1-4, 4-11; also: staple stereoisomer: later eluting HPLC peak) [I-1071] has an EC50 of 1260 nM.
In the case of Ac-[αAllylPro]D[tBuAla][B5(3)]DEAAFL[PyrS2″]F[Bta]Q-NH2 (staple 1-4, 4-11; also: staple stereoisomer: later eluting HPLC peak) [I-1074], the EC50 is reported as 498 nM.
